Measurements taken from patent publication US20220204629A1.

Legend:
[1] = target: recombinant, full length human Galectin-9 (R&D Systems 2045-GA) (human) (UniProt O00182); experiment: cell-based or functional assay
[2] = target: mouse Galectin-9 CRD2 (residues 226-353) (mouse) (UniProt O08573); experiment: biolayer interferometry, G9.2-17 captured on anti-Fab probes, mouse gal-9 CRD2 in solution, global fit
[3] = target: galectin-9 on the cell surface of the CRL-2134 cell line (human) (UniProt O00182); experiment: flow cytometry, saturation curve on CRL-2134 cells
[4] = target: mouse Galectin-9 CRD2 (residues 226-353) (mouse) (UniProt O08573); experiment: SPR, One Step method, Pioneer; mouse CRD2
[5] = target: mouse Galectin-9 CRD2 (residues 226-353) (mouse) (UniProt O08573); experiment: bead based binding, mouse CRD2
[6] = target: galectin-9 on the cell surface of the CRL-2134 cell line (human) (UniProt O00182); experiment: cell based binding, flow cytometry on CRL-2134 cells

Sequence of recombinant, full length human Galectin-9 (R&D Systems 2045-GA) (human) (O00182 other isoform, or with tags, fused parts or gaps limits assumed): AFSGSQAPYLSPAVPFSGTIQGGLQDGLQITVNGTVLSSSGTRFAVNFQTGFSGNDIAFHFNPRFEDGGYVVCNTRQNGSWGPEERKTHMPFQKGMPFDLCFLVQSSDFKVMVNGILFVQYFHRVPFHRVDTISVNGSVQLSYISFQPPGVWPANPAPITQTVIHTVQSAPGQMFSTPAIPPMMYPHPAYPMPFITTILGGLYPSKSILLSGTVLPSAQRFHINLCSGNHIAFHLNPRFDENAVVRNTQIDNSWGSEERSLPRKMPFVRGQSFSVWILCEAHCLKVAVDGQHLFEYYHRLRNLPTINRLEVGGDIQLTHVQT

MOLM-13 T cell apoptosis assay [1] [%] | Kd [2] [nM] | Kd [3] [nM] | Kd [4] [nM] | Kd [5] [nM] | Kd [6] [nM] | Binder
10 | 1.6 | 0.41 | 1.8 | 0.3 |  | G9.2-17 human IgG4 (antibody, V domains shown) VH: EVQLVESGGGLVQPGGSLRLSCAASGFTVSSSSIHWVRQAPGKGLEWVAYISSSSGYTYYADSVKGRFTISADTSKNTAYLQMNSLRAEDTAVYYCARYWSYPSWWPYRGMDYWGQGTLVTVSS VL: DIQMTQSPSSLSASVGDRVTITCRASQSVSSAVAWYQQKPGKAPKLLIYSASSLYSGVPSRFSGSRSGTDFTLTISSLQPEDFATYYCQQSSTDPITFGQGTKVEIKR
 |  | 2.9 | 3.05 | 0.3 | 2.91 | G9.2-17 mIgG1 (antibody, V domains shown) VH: EVQLVESGGGLVQPGGSLRLSCAASGFTVSSSSIHWVRQAPGKGLEWVAYISSSSGYTYYADSVKGRFTISADTSKNTAYLQMNSLRAEDTAVYYCARYWSYPSWWPYRGMDYWGQGTLVTVSS VL: DIQMTQSPSSLSASVGDRVTITCRASQSVSSAVAWYQQKPGKAPKLLIYSASSLYSGVPSRFSGSRSGTDFTLTISSLQPEDFATYYCQQSSTDPITFGQGTKVEIKR
